Assay: soluble on expression in E. coli; label from the status in PepcDB or PDB records

Sequence | soluble on expression in E. coli
MSLQSYADALSAKGYRSFGFDTDMEMDMDMGCTTMRRIEKRKGGDLADSPVDEKAEADVEVTNEISAPYEVPQFPIEQIEKKLQIQRHLNEKQATGPRPVATAAVLATNRESSSSTEGRESAVTMERNDADINFQRVSISGEDTSGVPLEDLERASTLLIEALRLRSHYMAMSDQSFPSTTARFLKTVKLKDRINNLPVKEVSESADVHLRHSPMKITNPWNVEFPNDEDFKIKPLNGVFHIYENDDESSEIKYEYPDMSQFVNDMQVMCNMIADGPLKSFCYRRLCYLSSKYQMHVLLNELRELAAQKAVPHRDFYNTRKVDTHIHAASCMNQKHLLRFIKKTLKNNANEVVTVTNGQQMTLAQVFQSMNLTTYDLTVDMLDVHADRNTFHRFDKFNSKYNPIGESRLREVFLKTDNYLNGKYFAQIIKEVAFDLEESKYQNAELRLSIYGKSPDEWYKLAKWAIDNDVYSSNIRWLIQIPRLFDIFKSNKMMKSFQEILNNIFLPLFEATARPSKHPELHRFLQYVIGFDSVDDESKPENPLFDNDVPRPEEWTYEENPPYAYYIYYMYANMTVLNKFRQSRNMNTFVLRPHCGEAGPVQHLVCGFLMAENISHGLLLRKVPVLQYLYYLTQIGIAMSPLSNNSLFLNYHRNPLPEYLARGLIISLSTDDPLQFHFTKEPLMEEYSIAAQVWKLSSCDMCELARNSVMMSGFPHAIKQQWLGPIYYEDGIMGNDITRTNVPEIRVAYRYETLLDELSNIFKVNQTCSIADMNATEGHHHHHH | soluble
MKKIHYTDNYLLKPYHPVTIHVAGAGGTGSQVITNLARMNVALQALGHPGLHVTVFDPDIITEANIGRQLFSEMELGQGKATAAVTRVNRFFGTTWTAENCRYPVRKTQENGDDRTKPANIIITCTDNTRSRLELWRFLKKYRETSVNNERAVYYWMDFGNAQTTGQVFIGTVRNKIRQPASKEFMPVPGMNVITEEVNYSTIEEKDSEPSCSLAEALERQDLYINSILAQVGCDILWRMFKEGRTLYRGAYINLDTLRVNPIPV | not soluble
MGSDKIHHHHHHMTYDYTEPTLSAKGQRMRDILADYIALISHRLPDDVTAKLEELSKIEVDPLQKLVYDTMMENQLLANKLKRPSCQDTGALQFFIKCGAQFPLLGELNQILKDAVYRGTKKAPLRHNAVQTFDEYNTGMNIGDGIPSIFLQVDGNGTDISMYVYMAGGGCTLPGAAKVLMPGEGYEGVVRFVMDRMTSYGINACPPLLVGVGVATSVETAALNSKLALMRRVDSENPNANAAKLEHLLEDGINHIGLGPQGFGGQKSVMGVNVENTARHPSTIGVAVSTGCWSHRRGLINFDADLNYDLPLNKGVELS | not soluble
GPGSMNPYYAAPPPPPQQQQSRPSVDLDDLFGGPTAANEHKPFHAAPGEPAPPSYDALNGGYSSAPPPAHHAAASEPQQSHNGNISGNQSLYYGAAHQQQQQQQSYGVPAAVPASASPYGMSSPPPAFSSSSSITPGTAPPLQPQPQQQQYGAYPAMPASGMAPPAPPLQQQPPQVYVQPQPQPQPMPGPVHQQQQSFAQNSSSSVSPSGAAAVAGPTAAAGVGSGAASSRSAEEEDRLQLERIIRLRRELELEQEREQRKKEELQTWGCPICTFRNKLNEVKCEMCGSTRPGYTAPASTEPPAQHQQQQHQPRPAATPSQVNAGVTDWQCGMCLAPNEAHAERCKVCYAYRSSGIPVPTASPSGAAANANHNGVVSNTPFTTNWKCSVCGEVNPPSKANCKVCSGFQRNGTAVTDAVPAPSTGSGHGAQATSSADPPLPTVWSCSVCTFENSVSAAVCKACESGQRPRHLAPKRDKEKSASSKQHDSRGSGAKDGGGDGEKKCSSSKSQWPCGTCTFLNPIGRKKCDMCGAKRPESYAAEADTTEARAAAKQEAQDDAEEVAWQDDDSVTECNNCHTTFTFLIRRHHCRLCGYVFCAHCSSYSVPLTMGSLPQRVCVNCYKARLEEEKKTKKARRWLDS | soluble
SLRLPTVFRQMRPVSRVLAPHLTRAYAKDVKFGADARALMLQGVDLLADAVAVTMGPKGRTVIIEQSWGSPKVTKDGVTVAKSIDLKDKYKNIGAKLVQDVANNTNEEAGDGTTTATVLARSIAKEGFEKISKGANPVEIRRGVMLAVDAVIAELKKQSKPVTTPEEIAQVATISANGDKEIGNIISDAMKKVGRKGVITVKDGKTLNDELEIIEGMKFDRGYISPYFINTSKGQKCEFQDAYVLLSEKKISSIQSIVPALEIANAHRKPLVIIAEDVDGEALSTLVLNRLKVGLQVVAVKAPGFGDNRKNQLKDMAIATGGAVFGEEGLTLNLEDVQPHDLGKVGEVIVTKDDAMLLKGKGDKAQIEKRIQEIIEQLDVTTSEYEKEKLNERLAKLSDGVAVLKVGGTSDVEVNEKKDRVTDALNATRAAVEEGIVLGGGCALLRCIPALDSLTPANEDQKIGIEIIKRTLKIPAMTIAKNAGVEGSLIVEKIMQSSSEVGYDAMAGDFVNMVEKGIIDPTKVVRTALLDAAGVASLLTTAEVVVTEIPKEEKDPGMGAMGGMGGGMGGGMF | soluble
MAHHHHHHMSVFEARQKVYATLHGTFHAAIVQEVAVDAETGQYLYYVHYVEQDSRMDCWLPASELKERRQGRQASKQQTNKSGGGGITTRGQSRLVAGKEDEVSRGPNTPTSSAKRSNLQNCVKVSTTRARKDSSFFSRPKNIHSICMGPYEVATWYFSPYHLARPQIQQGLKQNAELFSGKMELQLRQENKKSAFQTAVVPTSFVLHICPFCLHPFTAHEDVVRHLQIVCPRHPPGNEIYRDPVRQLVVLEMDAVVEPVFCEHLALLSKLFLEHKALDHDMTPFLFYVLCAVQPHGLEVLGYFSKEKQSPEMYNLSCILVLPQFQSRGIGRFLIELSYELSRREGRIGSPEKPLSDLGEKLYLGYWGDVIVSALARAIEENHCATLEYLVQATYLSQADVLRTLQYLRLLNGTQIVVSEESIERCYSRRLHRERSGKNYVFYPHLLSWSPHMYYELKEQDVAPPIYVTQSEELEQNAASKGQRVF | not soluble
MAILIPASFGRLTITSRAQVRVRVSASANQRTIRRDSVDWVKETSSFFEEDKRPIMLFDGVCNLCNGGVKFVRDHDRNRSIRFEALQSEAGKKLLLRSGRAPDDISSVVLVENDRSYIKSEAVLKIMKYIDLPFPQLAFFLQFAPLFVRDFLYENVANNRYAMFGRSDSCEL | soluble
DDLPYRFGLGKADITGEAAEVGMMGYSSLEQKTAGIHMRQWARAFVIEEAASGRRLVYVNTDLGMIFQAVHLKVLARLKAKYPGVYDENNVMLAATHTHSGPGGFSHYAMYNLSVLGFQEKTFNAIVDGIVRSIERAQARLQPGRLFYGSGELRNASRNRSLLSHLKNPDIAGYEDGIDPQMSVLSFVDANGELAGAISWFPVHSTSMTNANHLISPDNKGYASYHWEHDVSRKSGFVAAFAQTNAGNLSPNLNLKPGSGPFDNEFDNTREIGLRQFAKAYEIAGQAQEEVLGELDSRFRFVDFTRLPIRPEFTDGQPRQLCTAAIGTSLAAGSTEDGPGPLGLEEGNNPFLSALGGLLTGVPPQELVQCQAEKTILADTGNKKPYPWTPTVLPIQMFRIGQLELLGAPAEFTVMAGVRIRRAVQAASEAAGIRHVVFNGYANAYASYVTTREEYAAQEYEGGSTLYGPWTQAAYQQLFVDMAVALRERLPVETSAIAPDLSCCQMNFQTGVVADDPYIGKSFGDVLQQPRESYRIGDKVTVAFVTGHPKNDLRTEKTFLEVVNIGKDGKQTPVTVATDNDWDTQYRWERVGISASKATISWSIPPGTEPGHYYIRHYGNAKNFWTQKISEIGGSTRSFEVLGTTP | soluble
GDNDAIYYPVGDVDIERGGPALEVGEEDVLVARSFNEEDYVLDTIAQYPNDPTLGKLTFMIDLKNQQKDQNVADFNGVGKSKLTMSLGYKDGNYPSESQVPIYTSQDVTAKYAVKLRLKGELLVSGDEWMIDYVYAQLASLFQPYPPANFPEVFMCKGGMKLGTFDSFRRTCTFDITYDRSDLSFSQLYFNLFINLAGQKRENRVRLRIDKESYFELYEQSEEM | soluble
MALFGKKSSDSSKSVAVPKAFTIQIDPSKFNLATKPSGPVHEQLETLKQKLTKLSSNVENNLMLVIRASTKKDKALASSAFEFDERYIQKGKFEVEYLTLAYLNFQQLDEADRKTVAHARMILKELERIAQFCLNIADKTEYIQLANIQVLHKDEYDLKLMGDDTAEMIKKAVEAFVSGNSKHATETLDMMKKIDDLYQKAVAKLKAEVNDSNIINSTGILSVVEHVHTCAEISCAIARHFC | soluble
HKPWRAEYAKSSRSSCKTCKSVINKENFRLGKLVQSTHFDGIMPMWNHASCILKKTKQIKSVDDVEGIESLRWEDQQKIRKYVESGAGSNTSTSTGTSTSS | soluble
MLDMNPQETYTAPEEVNTPSRPIDENALLQRHQVMVKRVVNQLRVHATSHCSIEDMQQIGLIALVEAGRRYGDIDDTHFPAFAVCRVRGAILDELRRLDWRSRKTRQQAHELNDVTRDLTRSLGRMPTDSEIIKALGTDEQDYYNRQNAALAGEMQSLDQLMENSTDSHFGGQYDGMEHEHIRRSLDSALGRLSKRDQLLLTLFYQHELNLHEIALVLDLTPPRICQLHKQALKQLNQLMSS | not soluble
MLGTISMRFFATKVVAPRASVAASTPQVPLGMNINPYAMFIKENFKANTSDMKRTDLMKELSGKWKALSISEKDKYTELSKNYNAQKLDDFMKLSTEEQKKLVDSAKEKKAERASRRHAKERREKRKQSGRPSVPPSAYALFIKEKLSGAGMESKEKMKEAVAQWKAFTDSQKKKYTDEAKKLKDEYHVVLQKWEAEQKENADQ | not soluble
MGSDKIHHHHHHMRIDIDSFNVLQVLVEEGSFAKASERLHKAQSAVSYQVKKLEQHLGVTLFNRDKYRAELTPEGKVILIEGQRLLEQLANIEHLASRFSQGWEPKLELVIDGSLPMEPIMTALKRMSEHNVPTKIQLNMEFLGGVQHRFERDKADLMLVKDYRSGPYYDAKPLPSITSVLVVANSHPLALSKAVSLSQLQQHVELTIEDSSPSRLGRDELQFGGDKVFYLSGFIMKKNALLKGLGFGWMPDFLIGEELAAGELVMVDFMGGSRFNYTPQLVSTLARPLGRAGQLFTELILQEFDLFHQDLADGSSGSGLG | not soluble
MGEKAFKRPNVLSTIGAFGYRAAVFRNVLEAAKLDPSIYYTFISGPEIDPEQFSKVPENVEFTGFTENPFPYYKGSDLVITAGGHGTIMESLAFGLPILSFPDEKHAEQENNASVLEEAGYGKRMSYLTPPEVILACIREIFEDENYSKKTRRLMELAEVLEHHHHHH | soluble
MGSDKIHHHHHHMNRLIGEKMNDVLSKVTDKEYLKQIEDVIKFHGHLSGGAFIGIQMYNIAKKVLDIKDTDRVYANCETRNCMPDAFQVLGNCTTGNKRLSIKDYDIMAVTVNKIIPENEVGTGVRIVFDHKKAEKYPALYNWFMNIKKVPHEEVISDLIDAGDSIYSWKSVEIHVSEKKPKFSAVCGLCGESFIKKGTDDENICPNCAEKSAE | not soluble
MADLDDIKDGKDFHTDKPQTNTLFALKGCGALDWGMQSRLARIFNPKTRKTVMLAFDHGYFQGPTTGLERIDINIAPLFEYADVLMCTRGILRSVVPPAINKPVVLRASGANSILTELSNEAVAVAMDDAVRLNSCAAAAQVYIGSEHEHQSIKNIIQLIDAGLRVGMPIMAVTGVGKDMARDQRYFSLATRIAAEMGAQIIKTYYVDKGFERIAAGCPVPIVIAGGKKLPEREALEMCYQAIDQGASGVDMGRNIFQSEDPVAMIKAVHAVVHHNETAERAYELFLSEKS | not soluble
LSKLTVVETPLEVNLPAGDNRVAVRVTPVSLNAGSLKSDAGARFGGGTSGAAGSQSDKGVGLAVAFERPEEGLKADIGTTPMGFKYTTVAGGASVDRPLGNNPDLRYGLNVSRRPVTDSVTSFAGSTDERSGLSWGGVTANGGRGQLSYDDQTIGGYGYGSWHKLVGNNVKSNTRGEVGGGVYWYLRNAEDSKLTAGLSLMGMSYDNDQSYFTYGHGGYFSPQSFYAIGVPVMWAQRTERFSYQVKSSVGVQHFKQDGAEFFPDDSTLQAASAQRYTGQSKTGIGYNLSAAGEYKLDSSLFMGASLGLDNARDYRQFSGALYLRYMFEDI | not soluble

— the DeepSol protein solubility set
